According to patent publication US20230279131A1:
Substitutions are numbered along the chain they refer to.

T1: human IL-2Rγ expressed on cells (NK-92, Jurkat) (human) (UniProt P31785)
T1 sequence (looked up): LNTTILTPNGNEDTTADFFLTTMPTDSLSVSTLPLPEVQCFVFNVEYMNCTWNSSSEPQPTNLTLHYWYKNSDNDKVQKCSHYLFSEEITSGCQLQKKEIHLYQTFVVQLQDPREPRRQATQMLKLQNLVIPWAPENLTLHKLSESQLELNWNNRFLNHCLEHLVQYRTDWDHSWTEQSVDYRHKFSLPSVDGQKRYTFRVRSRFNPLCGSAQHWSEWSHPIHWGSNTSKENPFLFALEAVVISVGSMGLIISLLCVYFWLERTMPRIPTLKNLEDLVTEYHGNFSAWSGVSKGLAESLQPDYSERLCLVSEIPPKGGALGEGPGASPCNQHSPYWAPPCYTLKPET

T2: human IL2Rγ expressed on cells (human) (UniProt P31785)
T2 sequence (looked up): T1 sequence (looked up)

T3: mouse IL-2Rγ expressed on cells (MC/9) (mouse) (UniProt P34902)
T3 sequence (looked up): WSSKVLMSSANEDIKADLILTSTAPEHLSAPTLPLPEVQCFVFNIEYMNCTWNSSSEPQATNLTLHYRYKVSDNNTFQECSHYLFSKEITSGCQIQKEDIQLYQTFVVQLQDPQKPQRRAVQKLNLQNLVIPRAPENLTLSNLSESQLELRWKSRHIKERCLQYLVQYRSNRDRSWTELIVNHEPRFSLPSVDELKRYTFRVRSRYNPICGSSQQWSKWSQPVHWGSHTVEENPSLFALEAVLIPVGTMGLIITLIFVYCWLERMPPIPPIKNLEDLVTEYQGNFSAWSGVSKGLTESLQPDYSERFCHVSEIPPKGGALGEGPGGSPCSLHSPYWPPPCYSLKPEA

B1: H4H12899P (antibody, human IgG4 S228P, kappa, V domains shown)
VH: QVQLVESGGDLVKPGGSLRLSCATSGFTFSDFYMTWIRQAPGKGLEWISYISNSGSIVKYADSVKGRFTISRDNAKNSLYLQMNSLRAEDTAIYYCARFYGDRWGQGTLVTVSS
VL: DIQLTQSPSFLSASVGDRVTITCWASQGISTFLAWYQQKPGKAPKLLIYAASTLQSGVPSRFSGSGSGTDFTLTISSLQPEDFATYHCQQLNNYPWTFGQGTKVEIKR
B2: H4H12874P (antibody, human IgG4 S228P, kappa, V domains shown)
VH: QVQLVESGGGVVQPGRSLRLSCAASGFNFRNFGMHWVRQAPGKGLEWVAGILYDGSSKYYADSVKDRFTISRDNSKNTLFLQMNSLRAEDTAMYYCAKEEDTAMVPFDSWGPGTLVTVSS
VL: B1 VL with T31S, F32Y, K45T, D70E, T85S, H87Y, N92K, N93S, W96L, Q100G
B3: H4H12900P (antibody, human IgG4 S228P, kappa, V domains shown)
VH: QVQLVESGGGLVKPGGSLRLSCEASGFTFNDFYMTWIRQAPGKGLEWIAYISKSGDKMRYADSVKGRFSTSRDNAKNSLSLQMNSLRAEDTAVYYCARFYGDIWGQGTLVTVSS
VL: B1 VL with G28D, T31S, A34V, K45N, T53A, D70E, T85S, H87Y, Q89E
B4: H4H12857P (antibody, human IgG4 S228P, kappa, V domains shown)
VH: EVQLVESGGGVVRPGGSLRLSCAASGFTFDDFDMSWVRQGPGKGLEWVSGINWHGSSTGYADSVKGRFTISRDNAKNSLYLQMSSLRAEDTALYHCVRGGTIVGATTPLDYWGQGTLVTVSS
VL: DIQMTQSPSSLSASVGDRVTMTCRASRTISSYLSWYQQKSGKVPNLLIFGASSLQSGVPSRFSASGSGTDFTLIISSLQPEDFATYYCQQSYSSPLTFGGGTKVEIKR
B5: H4H12863P (antibody, human IgG4 S228P, kappa, V domains shown)
VH: QVQLVESGGGVVQPGRSLRLSCTASGFTFRSYDMYWVRQAPGKGLEWVSVITYDGNNKYYADSVKGRFTISRDNSKNTLFLQMSSLRPEDTAVYYCAKRGLIWVGESFDYWGQGTLVTVSS
VL: DIQMTQSPSTLSASVGDRVTITCRASQSINSWLAWYQQKPGKAPNLLIYKASSLESGVPSRFSGSGSGTEFTLTISSLQPDDFATYYCQQYKSYSWTFGQGTKVEIKR
B6: H4H12858P (antibody, human IgG4 S228P, kappa, V domains shown)
VH: EVQLVESGGDLVQPGGSLRLSCTASGFIFRNYAMNWVRQAPGKGLEWLSGILGSNDNTYYVDSVKGRFTISRDNSRNTLYLQMNSLRAEDSAVYYCAKGDAGGFDYWGQGTLVTVSS
VL: DVVMTQSPLSLPVILGQPASISCRSSQSLVSSDGNTYLNWFQQRPGQSPRRLIYKVSNRDSGVPDRFSGSGSGTDFTLKISRVEAEDVGAYYCMQGSYWPPTFGQGTKLEIKR
B7: H4H13541P (antibody, human IgG4 S228P, kappa, V domains shown)
VH: EVQLVESGGGVVRPGGSLRLSCAASGFIFDDYDMSWVRQPPGRGLEWVSGIDWFGGTRGYADSMKGRFTISRDNAKNSLYLQMNSLRVEDTAFYYCARGGAIVGAVTPFDYWGQGTLVTVSS
VL: DIQMTQSPSSLSASVGNRVTLSCRASQSINTYLSWYQQRPGKAPKLLIYAASSLQSGVPSRFSGSGAGTDFTLTISSLQPEDFATYYCQQSYSAPLTFGGGTKVEIKR
B8: H4H13538P (antibody, human IgG4 S228P, kappa, V domains shown)
VH: EVQLVESGGGLVQPGGSLGLSCAASGFTFSNYAMSWVRQAPGKGLEWVSAVSGGGGGTYYADSVKGRFTISRDNSKNTVLLQMNSLRAEDTAVYYCARGRTGGLDYWGPGTLVTVSS
VL: B6 VL with L15F, S31D, F41L, K55E, K79T, A90I, S97T, Y98R, Q105G, L109V
B9: human IL-7 (ligand, UniProt P13232 26-177, looked up)
chain: DCDIEGKDGKQYESVLMVSIDQLLDSMKEIGSNCLNNEFNFFKRHICDANKEGMFLFRAARKLRQFLKMNSTGDFDLHLLKVSEGTTILLNCTGQVKGRKPAALGEAQPTKSLEENKSLKEQKKLNDLCFLKRLLQEIKTCWNKILMGTKEH

Target: T1, human IL-2Rγ expressed on cells (NK-92, Jurkat) (human)
Assay: flow cytometry on Jurkat cells (endogenous human IL-2Rg), antibody 10 ug/ml

Binding Ratio (Sample over unstained MFIs) | Raw MFI [MFI] | Binder
1 | 114 | B1
6 | 507 | B2
1 | 110 | B3
1 | 103 | B4
13 | 1170 | B5
1 | 99 | B6

Target: T1, human IL-2Rγ expressed on cells (NK-92, Jurkat) (human)
Assay: flow cytometry on NK-92 cells (endogenous human IL-2Rg), antibody 10 ug/ml

Binding Ratio (Sample over unstained MFIs) | Raw MFI [MFI] | Binder
18 | 2670 | B1
44 | 6580 | B2
28 | 4200 | B3
37 | 5490 | B4
87 | 13000 | B5
37 | 7050 | B7
2 | 228 | B6
1 | 235 | B8

Target: Human IL2Rγ extracellular domain expressed with a C-terminal mouse IgG2a Fc tag (human)
Assay: SPR Biacore 4000, mAb captured by anti-human Fc, 25 C

100 nM Ag Bound [RU] | Binder
1 | B1
4 | B3

Target: T2, human IL2Rγ expressed on cells (human)
Assay: cell-based or functional assay

EC50 [M] of ligand; NK92/hIL7R/STAT3-luc [M] | Binder
3.9e-11 | B9

Target: T3, mouse IL-2Rγ expressed on cells (MC/9) (mouse)
Assay: flow cytometry on MC/9 cells (endogenous mouse IL-2Rg), antibody 10 ug/ml

Binding Ratio (Sample over unstained MFIs) | Raw MFI [MFI] | Binder
1 | 167 | B1
1 | 202 | B2
1 | 128 | B3
1 | 198 | B4
1 | 185 | B5
1 | 199 | B6
